Test [1] has as its target F protein of RSV A2 virus (respiratory syncytial virus A2, UniProt P03420 26-574). The test is described as follows: cell-based or functional assay.
In test [2] the target is F protein of RSV B49 virus (respiratory syncytial virus B49). In words: cell-based or functional assay.

Sequence of F protein of RSV A2 virus (P03420 26-574): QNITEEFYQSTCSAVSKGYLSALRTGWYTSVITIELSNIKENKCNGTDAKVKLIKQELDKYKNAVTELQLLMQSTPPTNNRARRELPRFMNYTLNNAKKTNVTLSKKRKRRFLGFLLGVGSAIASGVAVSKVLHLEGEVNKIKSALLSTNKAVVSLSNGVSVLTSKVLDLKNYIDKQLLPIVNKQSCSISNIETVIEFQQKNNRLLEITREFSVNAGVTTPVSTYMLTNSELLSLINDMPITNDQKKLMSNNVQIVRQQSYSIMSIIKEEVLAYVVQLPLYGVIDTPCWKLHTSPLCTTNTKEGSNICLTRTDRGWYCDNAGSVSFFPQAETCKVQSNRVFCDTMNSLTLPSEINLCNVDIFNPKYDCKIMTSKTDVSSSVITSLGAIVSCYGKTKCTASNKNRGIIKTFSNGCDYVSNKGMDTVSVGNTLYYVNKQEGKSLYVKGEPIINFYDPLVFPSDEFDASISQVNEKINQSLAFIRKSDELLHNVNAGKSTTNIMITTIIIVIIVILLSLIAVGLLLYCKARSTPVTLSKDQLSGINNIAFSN

B1: VHH-DS-Cav1-4 (VHH)
VHH: QVQLQESGGGLVQPGGSLRLSCAASGFTLDYYYIGWFRQAPGKEREAVSCISGSSGSTYYPDSVKGRFTISRDNAKNTVYLQMNSLKPEDTAVYYCATIRSSSWGGCVHYGMDYWGKGTQVTVSS
Consider B1, for which, in test [1], the “IC50 of in vitro neutralization of RSV A2 (plaque reduction on Vero cells)” value turned out to be 0.021 nM. Further, the “IC50 of neutralization of RSV B49 (plaque reduction on Vero cells)” value in test [2] was found to be 0.015 nM.

B2: VHH-DS-Cav1-L66 (VHH)
VHH: QVQLQESGGGLVQPGGSLRLSCAASGFTLDYYYIGWFRQAPGKEREGVSCISSSHGSTYYADSVKGRFTISRDNAKNTVYLQMNSLKPEDTAVYYCATVAVAHFRGCGVDGMDYWGKGTQVTVSS
For B2, in test [1], the “IC50 of in vitro neutralization of RSV A2 (plaque reduction on Vero cells)” value was determined as 0.032 nM. Moreover, the “IC50 of neutralization of RSV B49 (plaque reduction on Vero cells)” value in test [2] came to 0.032 nM.

The values are drawn from patent US20200102374A1 (VIB VZW, published 2020).
